Measurements reported in the Human Domainome abundance scans (Beltran et al. 2025).
± gives the uncertainty stated by the source.

B1: Ankyrin-3, residues 4094 to 4171; numbered along this chain, Q12955 (parent)
chain: MAIVADHLGLSWTELARELNFSVDEINQIRVENPNSLISQSFMLLKKWVTRDGKNATTDALTSVLTKINRIDIVTLLE

Variants of: B1
Test: abundance fitness (aPCA) (normalised: wild type 0, dead -1); higher = more abundant; growth selection in yeast, the domain comes from the species named
Conditions: Homo sapiens

| Variant | abundance fitness |
| --- | --- |
| H7R | -0.05 ± 0.048 |
| H7Q | -0.043 ± 0.066 |
| H7K | -0.016 ± 0.1 |
| H7I | -0.642 ± 0.26 |
| H7C | -0.637 ± 0.13 |
| H7M | -0.12 ± 0.085 |
| H7W | -0.802 ± 0.21 |
| H7F | -0.521 ± 0.22 |
| H7N | -0.292 ± 0.15 |
| H7A | -0.11 ± 0.051 |
| H7T | -0.175 ± 0.069 |
| H7S | -0.358 ± 0.065 |
| H7L | -0.366 ± 0.055 |
| H7D | -0.796 ± 0.22 |
| H7P | -0.881 ± 0.11 |
| H7E | 0.011 ± 0.074 |
| H7Y | -0.444 ± 0.13 |
| H7V | -0.202 ± 0.057 |
| H7G | -0.705 ± 0.062 |
| L8R | -0.829 ± 0.11 |
| L8C | -0.787 ± 0.22 |
| L8Y | -0.63 ± 0.3 |
| L8K | -0.696 ± 0.36 |
| L8A | -1.07 ± 0.23 |

| Variant | abundance fitness |
| --- | --- |
| L8P | -1 ± 0.19 |
| L8V | -0.769 ± 0.11 |
| L8E | -0.984 ± 0.22 |
| L8M | -0.574 ± 0.15 |
| L8G | -0.983 ± 0.14 |
| L8F | -0.463 ± 0.4 |
| L8S | -0.916 ± 0.17 |
| L8Q | -0.755 ± 0.19 |
| L8W | -0.552 ± 0.15 |
| V4N | -0.663 ± 0.22 |
| V4F | -0.789 ± 0.28 |
| V4E | -1.01 ± 0.18 |
| V4G | -0.889 ± 0.099 |
| V4M | -0.963 ± 0.23 |
| V4T | -0.291 ± 0.08 |
| V4A | -0.253 ± 0.073 |
| V4W | -1.01 ± 0.38 |
| V4I | -0.169 ± 0.17 |
| V4L | -0.397 ± 0.057 |
| V4Q | -0.659 ± 0.19 |
| V4S | -0.766 ± 0.22 |
| V4R | -0.925 ± 0.11 |
| V4K | -0.806 ± 0.29 |
| V4P | -0.921 ± 0.15 |

| Variant | abundance fitness |
| --- | --- |
| S11P | -1.03 ± 0.24 |
| S11N | 0.009 ± 0.23 |
| S11A | -0.31 ± 0.073 |
| S11I | -0.422 ± 0.19 |
| S11M | -0.94 ± 0.24 |
| S11D | 0.092 ± 0.13 |
| S11V | -0.84 ± 0.11 |
| S11C | -0.342 ± 0.087 |
| S11R | -0.965 ± 0.12 |
| S11Q | -0.053 ± 0.076 |
| S11E | -0.326 ± 0.066 |
| S11F | -0.654 ± 0.19 |
| S11G | -0.261 ± 0.056 |
| S11T | -0.314 ± 0.06 |
| S11K | -0.761 ± 0.25 |
| S11L | -0.963 ± 0.12 |
| M1T | -0.801 ± 0.4 |
| M1C | -0.198 ± 0.23 |
| M1Y | 0.23 ± 0.45 |
| M1I | -0.321 ± 0.37 |
| M1R | -0.265 ± 0.11 |
| M1N | -0.099 ± 0.28 |
| M1K | -0.421 ± 0.1 |
| M1E | -0.365 ± 0.13 |

| Variant | abundance fitness |
| --- | --- |
| M1D | -0.643 ± 0.42 |
| M1A | -0.322 ± 0.1 |
| M1G | -0.566 ± 0.11 |
| M1V | -0.151 ± 0.08 |
| M1H | -0.587 ± 0.44 |
| D6N | -0.067 ± 0.3 |
| D6A | -0.25 ± 0.069 |
| D6W | -0.517 ± 0.079 |
| D6L | -0.352 ± 0.063 |
| D6E | 0.096 ± 0.069 |
| D6C | -0.418 ± 0.14 |
| D6F | -0.658 ± 0.36 |
| D6K | 0.155 ± 0.038 |
| D6I | -0.755 ± 0.42 |
| D6S | -0.258 ± 0.063 |
| D6R | -0.163 ± 0.048 |
| D6V | -0.296 ± 0.07 |
| D6M | -0.299 ± 0.17 |
| D6Y | -0.342 ± 0.12 |
| D6P | -0.238 ± 0.078 |
| D6G | -0.156 ± 0.05 |
| G9C | -0.781 ± 0.14 |
| G9M | -0.244 ± 0.11 |
| G9Y | -0.924 ± 0.39 |

| Variant | abundance fitness |
| --- | --- |
| G9D | -0.503 ± 0.17 |
| G9V | -0.551 ± 0.11 |
| G9P | -0.868 ± 0.12 |
| G9H | -0.667 ± 0.37 |
| G9Q | -0.39 ± 0.099 |
| G9N | -0.047 ± 0.16 |
| G9A | -0.499 ± 0.074 |
| G9T | -1 ± 0.29 |
| G9S | -0.535 ± 0.081 |
| G9E | -0.273 ± 0.074 |
| G9W | -0.786 ± 0.17 |
| I3P | -0.46 ± 0.087 |
| I3C | -0.225 ± 0.12 |
| I3S | -0.411 ± 0.062 |
| I3R | -0.321 ± 0.05 |
| I3G | -0.506 ± 0.06 |
| I3E | -0.342 ± 0.083 |
| I3L | -0.027 ± 0.051 |
| I3K | -0.27 ± 0.11 |
| I3H | -0.523 ± 0.17 |
| I3M | -0.081 ± 0.096 |
| I3D | -0.489 ± 0.16 |
| I3Q | -0.33 ± 0.076 |
| I3V | -0.05 ± 0.053 |

| Variant | abundance fitness |
| --- | --- |
| I3Y | -0.486 ± 0.16 |
| L10G | -0.043 ± 0.052 |
| L10Y | -0.104 ± 0.2 |
| L10V | 0.029 ± 0.06 |
| L10Q | 0.04 ± 0.074 |
| L10C | -0.016 ± 0.089 |
| L10H | 0.124 ± 0.079 |
| L10T | -0.046 ± 0.079 |
| L10I | -0.096 ± 0.19 |
| L10R | -0.022 ± 0.052 |
| L10E | 0.05 ± 0.071 |
| L10A | -0.064 ± 0.068 |
| L10M | -0.114 ± 0.094 |
| L10N | -0.133 ± 0.21 |
| L10F | 0.032 ± 0.062 |
| L10S | 0.081 ± 0.053 |
| L10P | -0.04 ± 0.086 |
| L10W | -0.101 ± 0.078 |
| L10D | -0.011 ± 0.11 |
| A5Y | -0.745 ± 0.34 |
| A5R | -0.498 ± 0.076 |
| A5C | -0.359 ± 0.12 |
| A5K | -0.648 ± 0.18 |
| A5P | -0.899 ± 0.26 |

| Variant | abundance fitness |
| --- | --- |
| A5T | -0.774 ± 0.18 |
| A5V | -0.484 ± 0.068 |
| A5L | -0.921 ± 0.19 |
| A5H | -0.716 ± 0.43 |
| A5I | -0.74 ± 0.31 |
| A5W | -0.765 ± 0.13 |
| A2D | 0.173 ± 0.074 |
| A2T | 0.077 ± 0.06 |
| A2G | 0.14 ± 0.051 |
| A2P | -0.193 ± 0.057 |
| A2M | -0.175 ± 0.1 |
| A2F | -0.035 ± 0.11 |
| A2V | -0.146 ± 0.049 |
| A2N | 0.08 ± 0.16 |
| A2K | -0.095 ± 0.2 |
| A2C | -0.077 ± 0.1 |
| A2L | -0.126 ± 0.067 |
| A2W | 0.169 ± 0.077 |
| A2Q | 0.058 ± 0.072 |
| A2Y | -0.037 ± 0.21 |
| A2H | -0.033 ± 0.077 |
| A2E | 0.224 ± 0.084 |
| A2R | 0.149 ± 0.044 |
